Reference: patent US10800847
Values belong to the substance of their own block, whether it stands above or below them.

Experiments:
[1] = target: HLA-A*6802 (A68) single antigen on Luminex beads (human); experiment: Luminex single antigen bead assay, iBeads (#6), IVIg 1:8
[2] = target: HLA-A*8001 (A80) single antigen on Luminex beads (human); experiment: as above
[3] = target: HLA-A*6901 (A69) single antigen on Luminex beads (human); experiment: as above
[4] = target: HLA-B*1801 (B18) (human); experiment: iBead MFI against regular-bead MFI, IVIg diluted 1:8
[5] = target: HLA-B*1502 (B75) (human); experiment: as above
[6] = target: HLA-B*0702 (B7) (human); experiment: as above
[7] = target: HLA-B*1501 (B62) (human); experiment: as above
[8] = target: HLA-B*1511 (B75) (human); experiment: as above
[9] = target: HLA-B*0801 (B8) (human); experiment: as above
[10] = target: HLA-B*1512 (B76) (human); experiment: as above
[11] = target: HLA-B*1503 (B72) (human); experiment: as above
[12] = target: HLA-Cw*0602 (Cw6) (human); experiment: Luminex, iBead vs regular bead MFI, 1:8
[13] = target: HLA-Cw*0303 (Cw9) (human); experiment: Luminex, iBead vs regular bead MFI, 1:8
[14] = target: HLA-B*8201 (B82) (human); experiment: Luminex, iBead vs regular bead MFI, 1:8
[15] = target: Albumin (negative control beads) (human or bovine); experiment: Luminex, iBead vs regular bead MFI, 1:8
[16] = target: HLA-Cw*1701 (Cw17) (human); experiment: Luminex, iBead vs regular bead MFI, 1:8
[17] = target: HLA-Cw*0702 (Cw7) (human); experiment: Luminex, iBead vs regular bead MFI, 1:8
[18] = target: HLA-Cw*0304 (Cw10) (human); experiment: Luminex, iBead vs regular bead MFI, 1:8
[19] = target: HLA-Cw*0202 (Cw2) (human); experiment: Luminex, iBead vs regular bead MFI, 1:8
[20] = target: HLA-Cw*0302 (Cw10) (human); experiment: Luminex, iBead vs regular bead MFI, 1:8
[21] = target: HLA-Cw*1601 (Cw16) (human); experiment: Luminex, iBead vs regular bead MFI, 1:8
[22] = target: HLA-Cw*0401 (Cw4) (human); experiment: Luminex, iBead vs regular bead MFI, 1:8
[23] = target: HLA-Cw*0801 (Cw8) (human); experiment: Luminex, iBead vs regular bead MFI, 1:8
[24] = target: HLA-Cw*1802 (Cw18) (human); experiment: Luminex, iBead vs regular bead MFI, 1:8
[25] = target: HLA-Cw*1203 (Cw12) (human); experiment: Luminex, iBead vs regular bead MFI, 1:8
[26] = target: HLA-Cw*0501 (Cw5) (human); experiment: Luminex, iBead vs regular bead MFI, 1:8
[27] = target: HLA-Cw*0102 (Cw1) (human); experiment: Luminex, iBead vs regular bead MFI, 1:8
[28] = target: HLA-Cw*1502 (Cw15) (human); experiment: Luminex, iBead vs regular bead MFI, 1:8
[29] = target: HLA-A*7401 (A74) single antigen on Luminex beads (human); experiment: Luminex single antigen bead assay, regular beads (#7), IVIg 1:8
[30] = target: HLA-A*8001 (A80) single antigen on Luminex beads (human); experiment: as above
[31] = target: HLA-A*6901 (A69) single antigen on Luminex beads (human); experiment: as above
[32] = target: HLA-A*8001 (A80) single antigen on Luminex beads (human); experiment: Luminex single antigen bead assay, iBeads vs regular beads, IVIg 1:8
[33] = target: HLA-A*6901 (A69) single antigen on Luminex beads (human); experiment: as above
[34] = target: HLA-Cw*0801 (Cw8) (human); experiment: Luminex, regular beads (#7), 1:8
[35] = target: HLA-A*3101 (A31) single antigen on beads (human); experiment: Luminex, iBead vs regular bead, IVIg 1:8
[36] = target: HLA-A*3301 (A33) single antigen on beads (human); experiment: Luminex, iBead vs regular bead, IVIg 1:8
[37] = target: HLA-A*3001 (A30) single antigen on beads (human); experiment: Luminex, iBead vs regular bead, IVIg 1:8
[38] = target: HLA-A*2902 (A29) single antigen on beads (human); experiment: Luminex, iBead vs regular bead, IVIg 1:8
[39] = target: HLA-A*3401 (A34) single antigen on beads (human); experiment: Luminex, iBead vs regular bead, IVIg 1:8
[40] = target: HLA-A*6601 (A66) single antigen on beads (human); experiment: Luminex, iBead vs regular bead, IVIg 1:8
[41] = target: HLA-A*3303 (A33) single antigen on beads (human); experiment: Luminex, iBead vs regular bead, IVIg 1:8
[42] = target: HLA-A*6801 (A68) single antigen on beads (human); experiment: Luminex, iBead vs regular bead, IVIg 1:8
[43] = target: HLA-A*3402 (A34) single antigen on beads (human); experiment: Luminex, iBead vs regular bead, IVIg 1:8
[44] = target: HLA-A*3601 (A36) single antigen on beads (human); experiment: Luminex, iBead vs regular bead, IVIg 1:8
[45] = target: HLA-Cw*1402 (Cw14) (human); experiment: Luminex, iBead vs regular bead MFI, 1:8

- MFI [1]: 1950 MFI
- MFI [2]: 1190 MFI
- MFI [3]: 2880 MFI
- Difference % (iBead vs regular bead) [4]: -100%
- Difference % (iBead vs regular bead) [5]: -94%
- Difference % (iBead vs regular bead) [6]: -100%
- Difference % (iBead vs regular bead) [7]: 253%
- Difference % (iBead vs regular bead) [8]: -51%
- Difference % (iBead vs regular bead) [9]: -100%
- Difference % (iBead vs regular bead) [10]: 51%
- Difference % (iBead vs regular bead) [11]: -100%
- Difference % [12]: -80%
- Difference % [13]: -45%
- Difference % [14]: -104%
- Difference % [15]: -24%
- Difference % [16]: -42%
- Difference % [17]: -77%
- Difference % [18]: -59%
- Difference % [19]: -59%
- Difference % [20]: -57%
- Difference % [21]: -77%
- Difference % [22]: -71%
- Difference % [23]: -90%
- Difference % [24]: -79%
- Difference % [25]: -65%
- Difference % [26]: -66%
- Difference % [27]: -75%
- Difference % [28]: -68%
- MFI [29]: 224 MFI
- MFI [30]: 1680 MFI
- MFI [31]: 2780 MFI
- Difference % (iBead MFI against regular bead MFI) [32]: -29%
- Difference % (iBead MFI against regular bead MFI) [33]: 4%
- MFI [34]: 4540 MFI
- Difference % (iBead MFI vs regular bead MFI) [35]: 0%
- Difference % (iBead MFI vs regular bead MFI) [36]: 42%
- Difference % (iBead MFI vs regular bead MFI) [37]: 9%
- Difference % (iBead MFI vs regular bead MFI) [38]: 253%
- Difference % (iBead MFI vs regular bead MFI) [39]: 59%
- Difference % (iBead MFI vs regular bead MFI) [40]: 166%
- Difference % (iBead MFI vs regular bead MFI) [41]: 189%
- Difference % (iBead MFI vs regular bead MFI) [42]: 0%
- Difference % (iBead MFI vs regular bead MFI) [43]: 0%
- Difference % (iBead MFI vs regular bead MFI) [44]: 120%
Substance: IVIg Gamunex-C Lot NKLK1 (antibody)

- MFI [1]: 489 MFI
- MFI [2]: 845 MFI
- MFI [3]: 814 MFI
- Difference % (iBead vs regular bead) [4]: -100%
- Difference % (iBead vs regular bead) [5]: -100%
- Difference % (iBead vs regular bead) [6]: -100%
- Difference % (iBead vs regular bead) [7]: -100%
- Difference % (iBead vs regular bead) [8]: -70%
- Difference % (iBead vs regular bead) [9]: -95%
- Difference % (iBead vs regular bead) [10]: 23%
- Difference % (iBead vs regular bead) [11]: -100%
- Difference % [45]: -88%
- Difference % [12]: -96%
- Difference % [13]: -64%
- Difference % [14]: -90%
- Difference % [15]: -29%
- Difference % [16]: -70%
- Difference % [17]: -89%
- Difference % [18]: -74%
- Difference % [19]: -80%
- Difference % [20]: -79%
- Difference % [21]: -88%
- Difference % [22]: -80%
- Difference % [23]: -85%
- Difference % [24]: -92%
- Difference % [26]: -83%
- Difference % [27]: -77%
- Difference % [28]: -95%
- MFI [29]: 201 MFI
- MFI [30]: 2290 MFI
- MFI [31]: 1720 MFI
- Difference % (iBead MFI against regular bead MFI) [32]: -63%
- Difference % (iBead MFI against regular bead MFI) [33]: -53%
- MFI [34]: 4420 MFI
- Difference % (iBead MFI vs regular bead MFI) [35]: -100%
- Difference % (iBead MFI vs regular bead MFI) [36]: -9%
- Difference % (iBead MFI vs regular bead MFI) [37]: -45%
- Difference % (iBead MFI vs regular bead MFI) [38]: 44%
- Difference % (iBead MFI vs regular bead MFI) [40]: -40%
- Difference % (iBead MFI vs regular bead MFI) [42]: 0%
- Difference % (iBead MFI vs regular bead MFI) [43]: 0%
- Difference % (iBead MFI vs regular bead MFI) [44]: -26%
Substance: IVIg Octagam (Octapharma, Lachen, Switzerland) (antibody)
